Substitutions are numbered along the chain they refer to.
T1: EsCas13d, nuclease-dead (Eubacterium siraeum, UniProt B0MS50, R295A;H300A;R849A;H854A)
T1 sequence: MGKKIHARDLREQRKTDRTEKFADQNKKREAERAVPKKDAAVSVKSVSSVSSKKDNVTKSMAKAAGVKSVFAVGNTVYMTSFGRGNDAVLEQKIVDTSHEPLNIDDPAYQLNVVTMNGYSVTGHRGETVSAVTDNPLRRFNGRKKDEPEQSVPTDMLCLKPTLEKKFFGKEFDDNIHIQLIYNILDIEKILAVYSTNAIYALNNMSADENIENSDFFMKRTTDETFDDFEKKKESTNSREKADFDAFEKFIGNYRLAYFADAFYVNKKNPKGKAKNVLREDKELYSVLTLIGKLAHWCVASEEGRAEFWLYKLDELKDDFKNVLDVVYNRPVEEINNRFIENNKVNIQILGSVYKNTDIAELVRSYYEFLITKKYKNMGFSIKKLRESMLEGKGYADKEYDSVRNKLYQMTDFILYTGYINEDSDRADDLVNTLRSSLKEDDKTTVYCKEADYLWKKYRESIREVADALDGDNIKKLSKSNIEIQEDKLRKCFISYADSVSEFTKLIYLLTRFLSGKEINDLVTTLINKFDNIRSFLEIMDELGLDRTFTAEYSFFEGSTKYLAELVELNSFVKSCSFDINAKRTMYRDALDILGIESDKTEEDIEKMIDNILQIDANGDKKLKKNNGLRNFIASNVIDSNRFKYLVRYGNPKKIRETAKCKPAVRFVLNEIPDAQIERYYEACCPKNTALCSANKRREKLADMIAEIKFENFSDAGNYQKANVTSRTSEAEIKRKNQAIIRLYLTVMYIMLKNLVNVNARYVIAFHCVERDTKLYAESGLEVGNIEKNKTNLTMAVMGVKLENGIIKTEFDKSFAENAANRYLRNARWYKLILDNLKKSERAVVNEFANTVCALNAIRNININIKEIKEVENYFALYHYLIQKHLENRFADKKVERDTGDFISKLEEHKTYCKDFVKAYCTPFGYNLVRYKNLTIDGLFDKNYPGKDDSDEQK

B1: target 1 MT 5'PFS GCU 3'PFS CUC (mixed)
RNA 1: CACCCGUGCAAAAAUGCAGGGGUCUAAAACUGAGCGGAUAACCUCUCUAUGG
RNA 2: GGGAAUGGAUCCACAUCUACGAAUUCGCUCCAUAGAGAGGUUAUCCGCUCACUCAGAUCGGAAGAGCACACGU
B2: target 1 MT 5'PFS GGC 3'PFS AGA (mixed)
RNA 1: B1 RNA 1
RNA 2: B1 RNA 2 with C28G, U29C, C52A, U53G, C54A
B3: target 1 MT 5'PFS GCA 3'PFS CCG (mixed)
RNA 1: B1 RNA 1
RNA 2: B1 RNA 2 with U29A, U53C, C54G
B4: target 1 MT 5'PFS GCA 3'PFS ACU (mixed)
RNA 1: B1 RNA 1
RNA 2: B1 RNA 2 with U29A, C52A, U53C, C54U
B5: target 1 MT 5'PFS GCA 3'PFS ACG (mixed)
RNA 1: B1 RNA 1
RNA 2: B1 RNA 2 with U29A, C52A, U53C, C54G
B6: target 1 MT 5'PFS AGU 3'PFS CCG (mixed)
RNA 1: B1 RNA 1
RNA 2: B1 RNA 2 with G27A, C28G, U53C, C54G
B7: target 1 MT 5'PFS CAA 3'PFS UAC (mixed)
RNA 1: B1 RNA 1
RNA 2: B1 RNA 2 with G27C, C28A, U29A, C52U, U53A
B8: target 1 MT 5'PFS CAG 3'PFS AAG (mixed)
RNA 1: B1 RNA 1
RNA 2: B1 RNA 2 with G27C, C28A, U29G, C52A, U53A, C54G
B9: target 1 MT 5'PFS UUU 3'PFS CGU (mixed)
RNA 1: B1 RNA 1
RNA 2: B1 RNA 2 with G27U, C28U, U53G, C54U
B10: target 1 MT 5'PFS GGC 3'PFS CGC (mixed)
RNA 1: B1 RNA 1
RNA 2: B1 RNA 2 with C28G, U29C, U53G
B11: target 1 MT 5'PFS UGG 3'PFS ACG (mixed)
RNA 1: B1 RNA 1
RNA 2: B1 RNA 2 with G27U, C28G, U29G, C52A, U53C, C54G
B12: target 1 MT 5'PFS GCU 3'PFS CUA (mixed)
RNA 1: B1 RNA 1
RNA 2: B1 RNA 2 with C54A
B13: target 1 MT 5'PFS GCU 3'PFS CUU (mixed)
RNA 1: B1 RNA 1
RNA 2: B1 RNA 2 with C54U
B14: target 1 insC 3' of 20,insC 3' of 20 (mixed)
RNA 1: B1 RNA 1
RNA 2: GGGAAUGGAUCCACAUCUACGAAUUCGUACCACCUAGAGAGGUUAUCCGCUCACCGAGAUCGGAAGAGCACACGU
B15: target 1 MT 5'PFS AGC 3'PFS AUA (mixed)
RNA 1: B1 RNA 1
RNA 2: B1 RNA 2 with G27A, C28G, U29C, C52A, C54A
B16: target 1 MT 5'PFS CAA 3'PFS UAG (mixed)
RNA 1: B1 RNA 1
RNA 2: B1 RNA 2 with G27C, C28A, U29A, C52U, U53A, C54G
B17: target 1 MT 5'PFS CAA 3'PFS UAA (mixed)
RNA 1: B1 RNA 1
RNA 2: B1 RNA 2 with G27C, C28A, U29A, C52U, U53A, C54A
B18: target 1 MT 5'PFS UGG 3'PFS ACU (mixed)
RNA 1: B1 RNA 1
RNA 2: B1 RNA 2 with G27U, C28G, U29G, C52A, U53C, C54U
B19: target 1 MT 5'PFS CAA 3'PFS UAU (mixed)
RNA 1: B1 RNA 1
RNA 2: B1 RNA 2 with G27C, C28A, U29A, C52U, U53A, C54U

The binders below were run against T1, EsCas13d, nuclease-dead (assay: crRNA (strand 1, pre-loaded); Mg2+; 40 mM Tris-HCl pH 7.5, 150 mM NaCl, 6 mM MgCl2, 1 mM DTT, 0.1% Tween-20, 0.2 mg/ml BSA; 25 C; 10 min per concentration, then washed). Settings: tags: His6-TwinStrep-SUMO cleaved; N-terminal SNAP kept (SNAP-Surface 488); label: 3' end held by stalled T7 RNA polymerase.

Going from B1 to B2, the Kd falls from 44 ± 14 nM to 22.5 ± 5 nM (2-fold).

B3 and B4 are the same in Kd: 18.5 ± 8 nM for the first, 18.5 ± 4.5 nM for the second.

B5 and B6 are within error of each other in Kd: 19 ± 5.5 nM for the first, 24.6 ± 7.6 nM for the second.

First: B7
Second: B8
The Kd of the first is 3.7-fold lower: 7.65 ± 2.65 nM for the first, 28.5 ± 8 nM for the second. The first binds more tightly here.

Compared with B9, B10 is 4.2-fold lower in Kd: about 65 nM for the first, 15.5 ± 4 nM for the second. The second binds more tightly here.

B11 and B12 are within error of each other in Kd: 54 ± 17.5 nM for the first, 53 ± 22 nM for the second.

First: B13
Second: B14
The Kd of the first is 1.7-fold lower: 26 ± 8 nM for the first, 44.7 ± 3.1 nM for the second.

Going from B15 to B16, the Kd falls from 56.5 ± 18.5 nM to 17 ± 6.5 nM (3.3-fold).

Compared with B17, B18 is 6.7-fold higher in Kd: 18 ± 9 nM for the first, about 120 nM for the second.

Work on B19 yielded a Kd of 34.5 ± 15 nM.
